Test results taken from patent publication US20130089875A1.

Assays:
[1] = biological target: PEGylated insulin-like-growth-factor I (human) (UniProt P05019); assay: sandwich ELISA: PEG-IGF-I at 0.03 ng/ml captured by biotinylated anti-PEG antibody on Streptavidin plate; dig-IGFBP-4 at 100 ng/ml; anti-digoxygenin-HRP/ABTS
[2] = biological target: PEGylated insulin-like-growth-factor I (human) (UniProt P05019); assay: sandwich ELISA: PEG-IGF-I at 0.06 ng/ml captured by biotinylated anti-PEG antibody on Streptavidin plate; dig-IGFBP-4 at 100 ng/ml; anti-digoxygenin-HRP/ABTS
[3] = biological target: PEGylated insulin-like-growth-factor I (human) (UniProt P05019); assay: sandwich ELISA: PEG-IGF-I at 0.13 ng/ml captured by biotinylated anti-PEG antibody on Streptavidin plate; dig-IGFBP-4 at 100 ng/ml; anti-digoxygenin-HRP/ABTS
[4] = biological target: PEGylated insulin-like-growth-factor I (human) (UniProt P05019); assay: sandwich ELISA: PEG-IGF-I at 0.25 ng/ml captured by biotinylated anti-PEG antibody on Streptavidin plate; dig-IGFBP-4 at 100 ng/ml; anti-digoxygenin-HRP/ABTS
[5] = biological target: PEGylated insulin-like-growth-factor I (human) (UniProt P05019); assay: sandwich ELISA: PEG-IGF-I at 0.50 ng/ml captured by biotinylated anti-PEG antibody on Streptavidin plate; dig-IGFBP-4 at 100 ng/ml; anti-digoxygenin-HRP/ABTS
[6] = biological target: PEGylated insulin-like-growth-factor I (human) (UniProt P05019); assay: sandwich ELISA: PEG-IGF-I at 1.00 ng/ml captured by biotinylated anti-PEG antibody on Streptavidin plate; dig-IGFBP-4 at 100 ng/ml; anti-digoxygenin-HRP/ABTS
[7] = biological target: PEGylated insulin-like-growth-factor I (human) (UniProt P05019); assay: sandwich ELISA: PEG-IGF-I at 2.00 ng/ml captured by biotinylated anti-PEG antibody on Streptavidin plate; dig-IGFBP-4 at 100 ng/ml; anti-digoxygenin-HRP/ABTS
[8] = biological target: PEGylated insulin-like-growth-factor I (human) (UniProt P05019); assay: sandwich ELISA: PEG-IGF-I at 0.03 ng/ml captured by biotinylated anti-PEG antibody on Streptavidin plate; dig-IGFBP-4 at 100 ng/ml; anti-digoxygenin-HRP/ABTS; mean of three
[9] = biological target: PEGylated insulin-like-growth-factor I (human) (UniProt P05019); assay: sandwich ELISA: PEG-IGF-I at 0.06 ng/ml captured by biotinylated anti-PEG antibody on Streptavidin plate; dig-IGFBP-4 at 100 ng/ml; anti-digoxygenin-HRP/ABTS; mean of three
[10] = biological target: PEGylated insulin-like-growth-factor I (human) (UniProt P05019); assay: sandwich ELISA: PEG-IGF-I at 0.13 ng/ml captured by biotinylated anti-PEG antibody on Streptavidin plate; dig-IGFBP-4 at 100 ng/ml; anti-digoxygenin-HRP/ABTS; mean of three
[11] = biological target: PEGylated insulin-like-growth-factor I (human) (UniProt P05019); assay: sandwich ELISA: PEG-IGF-I at 0.25 ng/ml captured by biotinylated anti-PEG antibody on Streptavidin plate; dig-IGFBP-4 at 100 ng/ml; anti-digoxygenin-HRP/ABTS; mean of three
[12] = biological target: PEGylated insulin-like-growth-factor I (human) (UniProt P05019); assay: sandwich ELISA: PEG-IGF-I at 0.50 ng/ml captured by biotinylated anti-PEG antibody on Streptavidin plate; dig-IGFBP-4 at 100 ng/ml; anti-digoxygenin-HRP/ABTS; mean of three
[13] = biological target: PEGylated insulin-like-growth-factor I (human) (UniProt P05019); assay: sandwich ELISA: PEG-IGF-I at 1.00 ng/ml captured by biotinylated anti-PEG antibody on Streptavidin plate; dig-IGFBP-4 at 100 ng/ml; anti-digoxygenin-HRP/ABTS; mean of three
[14] = biological target: PEGylated insulin-like-growth-factor I (human) (UniProt P05019); assay: sandwich ELISA: PEG-IGF-I at 2.00 ng/ml captured by biotinylated anti-PEG antibody on Streptavidin plate; dig-IGFBP-4 at 100 ng/ml; anti-digoxygenin-HRP/ABTS; mean of three

OD (absorption signal), Sample No. 1 [1]: 0.141 OD
OD (absorption signal), Sample No. 2 [1]: 0.159 OD
OD (absorption signal), Sample No. 3 [1]: 0.149 OD
OD (absorption signal), Sample No. 1 [2]: 0.25 OD
OD (absorption signal), Sample No. 2 [2]: 0.252 OD
OD (absorption signal), Sample No. 3 [2]: 0.243 OD
OD (absorption signal), Sample No. 1 [3]: 0.439 OD
OD (absorption signal), Sample No. 2 [3]: 0.428 OD
OD (absorption signal), Sample No. 3 [3]: 0.436 OD
OD (absorption signal), Sample No. 1 [4]: 0.757 OD
OD (absorption signal), Sample No. 2 [4]: 0.734 OD
OD (absorption signal), Sample No. 3 [4]: 0.766 OD
OD (absorption signal), Sample No. 1 [5]: 1.21 OD
OD (absorption signal), Sample No. 2 [5]: 1.25 OD
OD (absorption signal), Sample No. 3 [5]: 1.22 OD
OD (absorption signal), Sample No. 1 [6]: 1.66 OD
OD (absorption signal), Sample No. 2 [6]: 1.66 OD
OD (absorption signal), Sample No. 3 [6]: 1.73 OD
OD (absorption signal), Sample No. 1 [7]: 2.04 OD
OD (absorption signal), Sample No. 2 [7]: 2.06 OD
OD (absorption signal), Sample No. 3 [7]: 2 OD
OD (absorption signal), mean [8]: 0.15 OD
OD (absorption signal), mean [9]: 0.248 OD
OD (absorption signal), mean [10]: 0.434 OD
OD (absorption signal), mean [11]: 0.752 OD
OD (absorption signal), mean [12]: 1.23 OD
OD (absorption signal), mean [13]: 1.69 OD
OD (absorption signal), mean [14]: 2.03 OD
B1: digoxygenylated insulin-like-growth-factor-binding-protein-4 (protein)
chain: DEAIHCPPCSEEKLARCRPPVGCEELVREPGCGCCATCALGLGMPCGVYTPRCGSGLRCYPPRGVEKPLHTLMHGQGVCMELAEIEAIQESLQPSDKDEGDHPNNSFSPCSAHDRRCLQKHFAKIRDRSTSGGKMKVNGAPREDARPVPQGSCQSELHRALERLAASQSRTHEDLYIIPIPNCDRNGNFHPKQCHPALDGQRGKCWCVDRKTGVKLPGGLEPKGELDCHQLADSFRE
modifications: digoxigenin coupled through digoxigenin 3-O-methylcarbonyl-epsilon-aminocaproic acid-N-hydroxysuccinimide ester (amine-reactive), molar ratio 1:5; positions not given
